B1: Pleckstrin homology domain-containing family M member 1 (Homo sapiens), Q9Y4G2 (parent)
chain: MLSVVENGLDPQAAIPVIKKKLVGSVKALQKQYVSLDTVVTSEDGDANTMCSALEAVFIHGLHAKHIRAEAGGKRKKSAHQKPLPQPVFWPLLKAVTHKHIISELEHLTFVNTDVGRCRAWLRLALNDGLMECYLKLLLQEQARLHEYYQPTALLRDAEEGEFLLSFLQGLTSLSFELSYKSAILNEWTLTPLALSGLCPLSELDPLSTSGAELQRKESLDSISHSSGSEDIEVHHSGHKIRRNQKLTASSLSLDTASSSQLSCSLNSDSCLLQENGSKSPDHCEEPMSCDSDLGTANAEDSDRSLQEVLLEFSKAQVNSVPTNGLSQETEIPTPQASLSLHGLNTSTYLHCEAPAEPLPAQAASGTQDGVHVQEPRPQAPSPLDLQQPVESTSGQQPSSTVSETAREVGQGNGLQKAQAHDGAGLKLVVSSPTSPKNKSWISEDDFYRPSREQPLESASDHPIASYRGTPGSRPGLHRHFSQEPRKNCSLGALDQACVPSPGRRQAQAAPSQGHKSFRVVHRRQMGLSNPFRGLMKLGTVERRGAMGIWKELFCELSPLEFRLYLSNEEHTCVENCSLLRCESVGPAHSDGRFELVFSGKKLALRASSQDEAEDWLDRVREALQKVRPQQEDEWVNVQYPDQPEEPPEAPQGCLSPSDLLSEPAALQGTQFDWSSAQVPEPDAIKESLLYLYMDRTWMPYIFSLSLEALKCFRIRNNEKMLSDSHGVETIRDILPDTSLGGPSFFKIITAKAVLKLQAGNAEEAALWRDLVRKVLASYLETAEEAVTLGGSLDENCQEVLKFATRENGFLLQYLVAIPMEKGLDSQGCFCAGCSRQIGFSFVRPKLCAFSGLYYCDICHQDDASVIPARIIHNWDLTKRPICRQALKFLTQIRAQPLINLQMVNASLYEHVERMHLIGRRREQLKLLGDYLGLCRSGALKELSKRLNHRNYLLESPHRFSVADLQQIADGVYEGFLKALIEFASQHVYHCDLCTQRGFICQICQHHDIIFPFEFDTTVRCAECKTVFHQSCQAVVKKGCPRCARRRKYQEQNIFA

Legend:
[1] = variants of: B1; settings: with rab7a_canlf RAB7A
[2] = variants of: B1; settings: with gbrap_human GABARAP

Row | Variant | effect of a mutation on the interaction [1] | effect of a mutation on the interaction [2]
1 | S432D;S435D | with no effect | with no effect
2 | S432A;S435A | with no effect | with no effect

Reference: IntAct's records for PubMed 33452816
